The source of these data is patent publication US20220281973A1 (TRUEBINDING, published 2022).

In one experiment the target is T1, hLRIG1 Peptide 69 (human).
T1 construct: 20 amino acid peptide of the LRIG1 peptide library
T1 peptide: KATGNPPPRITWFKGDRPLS
Briefly: peptide ELISA of Example 2, as told in Example 3. The protocol:
(§1) To identify the epitopes to which LRIG1 antibodies with and without VISTA-LRIG1 blocking activity bound, a library of 20 amino acid peptides representing portions of LRIG1 was produced, and the ability to bind LRIG1 antibodies was evaluated by ELISA. At least 2 ug/ml of hLRIG1 peptide in 50 μl of PBS or 0.1 ug/ml of full-length human LRIG1 protein (R&D Systems) in 100 μl of PBS was added to the wells of a 96-well ELISA plate (Thermo Fisher, 44-2404-21). After incubating the plate at 4° C. overnight, the plate was washed three times with 300 μl of PBST per well. The plate was then blocked for an hour with 200 μl of 2% BSA in PBST per well at room temperature with gentle rocking. Thereafter, the 2% BSA in PBST was removed and 100 μl of 0.1 ug/ml of antibody in 2% BSA in PBST was added to the wells. The plate was incubated for an hour at room temperature with gentle rocking and then washed three times with 300 μl of PBST per well. Afterwards, 100 μl of anti-mouse IgG-HRP (1:4000) (Jackson ImmunoResearch) or anti-rat IgG HRP (1:4000) (Jackson ImmunoResearch) was added to the wells. The plate was incubated for 30 minutes at room temperature with gentle rocking and then washed three times with 300 μl of PBST per well. 100 μl of TMB substrate (Fisher Scientific, 34029) was then added to each well. The reaction was stopped with 50 μl of 1 M HCl (VWR) per well. The plate was read using a plate reader (Molecular Devices) at absorbance of 450 nm, and signal greater than 0.25 OD was considered evidence of peptide binding.
On the technique in general: ELISA stands for enzyme-linked immunosorbent assay.

Experiment [1] has as its target T2, human LRIG1 extracellular domain fused to a linker-spaced 6-histidine tag, LRIG1-ECD-His (R&D systems, … (human, UniProt Q96JA1 35-794)).
T2 construct: Bought protein; also called human LRIG1-His; hLRIG1-His; not shown: linker-spaced 6-histidine tag
T2 sequence: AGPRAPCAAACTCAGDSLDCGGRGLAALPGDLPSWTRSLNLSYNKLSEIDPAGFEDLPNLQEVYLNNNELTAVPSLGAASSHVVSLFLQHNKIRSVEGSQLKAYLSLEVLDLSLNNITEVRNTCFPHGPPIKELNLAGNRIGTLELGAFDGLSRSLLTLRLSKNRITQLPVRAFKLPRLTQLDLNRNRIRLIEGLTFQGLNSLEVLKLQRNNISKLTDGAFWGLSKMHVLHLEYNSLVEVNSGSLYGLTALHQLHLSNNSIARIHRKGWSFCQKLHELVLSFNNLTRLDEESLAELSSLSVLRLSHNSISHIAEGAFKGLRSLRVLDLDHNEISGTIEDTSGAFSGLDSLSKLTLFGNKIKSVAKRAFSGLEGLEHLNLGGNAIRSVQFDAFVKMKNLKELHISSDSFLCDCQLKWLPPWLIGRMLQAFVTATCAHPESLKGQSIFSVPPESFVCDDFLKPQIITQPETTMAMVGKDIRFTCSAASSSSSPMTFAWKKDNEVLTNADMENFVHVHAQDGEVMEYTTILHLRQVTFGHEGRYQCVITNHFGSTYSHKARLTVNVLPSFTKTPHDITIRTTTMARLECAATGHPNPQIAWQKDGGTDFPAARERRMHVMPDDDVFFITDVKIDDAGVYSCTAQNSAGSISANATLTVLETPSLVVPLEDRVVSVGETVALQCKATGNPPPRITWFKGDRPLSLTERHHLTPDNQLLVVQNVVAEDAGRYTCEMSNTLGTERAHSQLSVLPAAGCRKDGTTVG
Kind of experiment: LRIG1 ECD ELISA-positive hybridoma antibodies tested in blocking ELISA on plate-bound LRIG1-ECD-His. The protocol: Positively scoring wells were evaluated for the ability to block association of LRIG1 and VISTA. To identify LRIG1-targeted antibodies with the ability to block the interaction of LRIG1 and VISTA, purified LRIG1 and VISTA proteins were incubated in the presence of LRIG1-immunization hybridoma supernatants described above, or without antibody, and protein interaction was evaluated by ELISA. Purified human LRIG1 extracellular domain fused to a HIS tag (R&D Systems) was diluted in phosphate buffered saline (PBS) (Corning) to a concentration of 3 μg/ml and 100 μl was added to each well of a 96-well ELISA plate (Thermo Fisher, 44-2404-21). After incubating the plate at 4° C. overnight, the plate was washed three times with 300 μl of PBS with 0.05% TWEEN (VWR) (PBST) per well. The plate was then blocked for an hour with 200 μl of 2% bovine serum albumin (BSA) (Sigma) in PBST per well at room temperature with gentle rocking. Thereafter, the 2% BSA in PBST was removed and 50 μl of hybridoma supernatant diluted to 3.3 ug/mL was added to the wells. The plate was incubated for 10 minutes at room temperature with gentle rocking. Afterwards, 100 ul of 50 nM oligomerized VISTA in 100 ul PBS buffer was added per well. VISTA oligomerization was performed by Klickmer formation. Briefly, 5 nM Klickmer (Immudex) was incubated with 200 nM hVISTA-Fc-Avi-Biotin in PBS and incubated for one hour. The plate was incubated for an hour at room temperature with gentle rocking. Thereafter, the plate was washed three times with 300 μl of PBST per well, and 100 μl of avidin-HRP (1:1000) (Jackson ImmunoResearch) was then added to each well and the plate was incubated at room temperature for 30 minutes with gentle rocking. Thereafter, the plate was washed three times with 300 μl of PBST per well. 100 μl of TMB substrate (Fisher Scientific, 34029) was then added to each well. The reaction was stopped with 50 μl of 1 M HCl (VWR) per well. The plate was read using a spectrophotometer (Molecular Devices) at absorbance of 450 nm. Percent blockade of LRIG1-VISTA interaction was calculated as the fraction of signal obtained in each experimental samples of the no antibody sample less background signal.

The target of the next experiment is T3, hLRIG1 Peptide 70 (human).
T3 construct: 20 amino acid peptide of the LRIG1 peptide library
T3 peptide: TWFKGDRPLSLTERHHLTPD
Briefly: peptide ELISA of Example 2, as told in Example 3. On the procedure:
as §1

The target of another experiment is T4, hLRIG1 Peptide 71 (human).
T4 construct: 20 amino acid peptide of the LRIG1 peptide library
T4 peptide: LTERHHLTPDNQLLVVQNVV
Briefly: peptide ELISA of Example 2, as told in Example 3. On the procedure: as §1

B1: 802.5G6.2B11 (antibody, V domains shown)
VH: EVQLQQSGAELVRPGASVKLSCTASGFNIKDDYLHWVKQRPEQGLEWIGWIDPEKGDTECASKFQGKATITVDTSSNTAYLQLSSLTSEDTAVYFCTTGSTVWGQGTTLTVSS
VL: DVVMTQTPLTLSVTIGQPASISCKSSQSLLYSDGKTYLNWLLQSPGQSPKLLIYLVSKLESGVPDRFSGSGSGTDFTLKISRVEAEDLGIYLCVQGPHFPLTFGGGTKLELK
notes: Mouse hybridoma monoclonal
In the case of B1, the binding result (with hLRIG1 Peptide 69; in experiment [1]) was “binds” each time.

B2: 802.5G6.2B8 (antibody, V domains shown)
VH: EVHLVESGGGLMKPGGSLKLSCAASGFTFSSYAMSWVRQTPEKRLEWVATISDGGSYTYYPDNVKGRFTISRDNAKNNLYLQMSRLKSEDTAMYYCSRAGSTVVNFGYWGQGTTLTVSS
VL: DIVMTQTPLSLPVSLGDQASISCRSSQNIAHSNGNTYLEWYLQKPGQSPQLLIYKVSNRFSGVPDRFSGSGSGTDFTLKISRVEAEDLGVYYCFQGSHVPLTFGAGTKLELK
notes: Mouse hybridoma monoclonal
Consider B2, for which the binding result (with hLRIG1 Peptide 70; with hLRIG1 Peptide 71; in experiment [1]) was “binds” each time.
